Measured values: the supplement of paper PMC10065799, “High-throughput profiling of sequence recognition by tyrosine kinases and SH2 domains using bacterial peptide display” (eLife, 2023)

These sequences were tested against EPHB1 (UniProt P54762) (assay: phosphorylation enrichment, bacterial display (enrichment ratio); higher = better substrate or ligand; peptides without Tyr show the background).
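Also: 11-residue human phosphosite peptides and single-mutation variants displayed on the E. coli surface, counted by deep sequencing, each peptide's frequency after selection divided by its frequency in the unselected input library; frequency after pTyr selection over input frequency; kinase dosed for 20-30% of maximal phosphorylation in three min.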

EPHB1, sequence (P54762 whole entry, looked up): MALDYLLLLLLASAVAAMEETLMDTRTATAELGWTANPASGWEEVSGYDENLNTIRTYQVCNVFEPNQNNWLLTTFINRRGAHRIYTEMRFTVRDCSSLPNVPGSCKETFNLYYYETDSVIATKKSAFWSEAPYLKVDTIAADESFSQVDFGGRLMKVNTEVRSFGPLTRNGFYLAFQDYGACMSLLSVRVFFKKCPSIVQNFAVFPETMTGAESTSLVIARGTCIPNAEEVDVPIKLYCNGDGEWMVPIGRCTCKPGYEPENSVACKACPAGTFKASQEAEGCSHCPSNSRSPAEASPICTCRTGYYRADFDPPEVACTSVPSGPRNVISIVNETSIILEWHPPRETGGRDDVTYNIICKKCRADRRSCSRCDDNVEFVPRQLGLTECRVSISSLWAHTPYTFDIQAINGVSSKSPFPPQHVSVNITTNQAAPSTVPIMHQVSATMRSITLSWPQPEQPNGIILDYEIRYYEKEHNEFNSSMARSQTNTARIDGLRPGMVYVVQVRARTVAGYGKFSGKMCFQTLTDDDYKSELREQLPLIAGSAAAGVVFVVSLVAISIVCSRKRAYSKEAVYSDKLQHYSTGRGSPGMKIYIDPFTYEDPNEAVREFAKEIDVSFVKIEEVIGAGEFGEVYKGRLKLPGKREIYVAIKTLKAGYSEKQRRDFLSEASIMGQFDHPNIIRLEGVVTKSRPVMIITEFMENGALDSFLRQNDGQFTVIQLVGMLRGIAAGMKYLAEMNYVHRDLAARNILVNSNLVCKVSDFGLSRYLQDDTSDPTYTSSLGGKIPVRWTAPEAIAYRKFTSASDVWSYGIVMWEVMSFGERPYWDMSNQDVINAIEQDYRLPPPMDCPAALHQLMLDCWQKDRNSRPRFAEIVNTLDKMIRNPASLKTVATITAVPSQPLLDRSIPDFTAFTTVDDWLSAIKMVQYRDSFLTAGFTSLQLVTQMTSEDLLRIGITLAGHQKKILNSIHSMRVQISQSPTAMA

Sequence | phosphorylation enrichment
QVQQIYSDSDL [MIB1_Y376_R371Q] | 1.49
FGSRLYKFAFK [FANCD2_Y458_L456R_YF] | 0.354
SLAARYFNWVS [FLT4_Y1230_YF] | 0.586
VAVVQYSGMGQ [COL6A1_Y878_T881M] | 0.382
LIDTVYSSSSA [OR4C12_Y71] | 0.757
VHFLVYHHHHH [CACNA1H_Y519_H516Y_YF] | 0.555
DVLVEYQGEGR [GNS_Y416] | 0.427
MTEEQYIKMNR [ARFGEF2_Y797_K794E] | 0.478
TSESSYFKSLN [NGEF_Y288_A286S_YF] | 0.433
GGQSVYHVHLH [HINT1_Y109] | 0.476
KALSLYTKLMN [STAM_Y371_E366K] | 0.673
GLPINYTTRRI [LAMA2_Y2894] | 0.323
KMTGRYEMFAR [UPB1_Y362_YF] | 0.496
NFNPNYCFAGK [ALK_Y1096_D1091N_YF] | 2.56
TIQSMYGCDVG [HLA-B_Y123_L119I] | 0.502
DLDLTYIFPNI [PTEN_Y27_YF] | 2.03
LSPNMYNSKLW [TARSL2_Y457] | 0.632

Sequence | phosphorylation enrichment
HNELYYEEAEH [VANGL1_Y345] | 1.21
PEADKYRLTYA [FGG_Y300] | 0.832
LLTALYFISRG [KCNH2_Y780] | 0.645
KQELVYPNKKL [OPTN_Y356_T357P] | 0.33
QCTSAHPLQPE [NANS_Y188_Y188H] | 1.07
CPYNLYAEQLS [HGD_Y40] | 2.68
RHYVYYYSYLL [PTEN_Y177_R173H] | 2.69
LARDMYDKEYY [MET_Y1230] | 0.815
HLQQSYLPRGT [TEX45_Y396] | 0.622
EPAVLYNLKDR [MYH7_Y103] | 0.411
VTNHIYTWVDP [DFNB31_Y234] | 2.73
CTTIHNNFMCN [TP53_Y234_Y234N_YF] | 0.606
VGTKRYMAPKV [ACVRL1_Y375_E379K] | 0.274
PGLKGYPGLSG [COL4A2_Y306_R304K] | 0.474
KGEDFYYVTCH [FHL1_Y149_C150Y] | 0.802
NVSILYTASQA [CTNNA1_Y222_P219S] | 0.548

The sequences below were run against Jak2 (UniProt O60674) in the same assay as above.
Jak2, sequence (O60674 whole entry, looked up): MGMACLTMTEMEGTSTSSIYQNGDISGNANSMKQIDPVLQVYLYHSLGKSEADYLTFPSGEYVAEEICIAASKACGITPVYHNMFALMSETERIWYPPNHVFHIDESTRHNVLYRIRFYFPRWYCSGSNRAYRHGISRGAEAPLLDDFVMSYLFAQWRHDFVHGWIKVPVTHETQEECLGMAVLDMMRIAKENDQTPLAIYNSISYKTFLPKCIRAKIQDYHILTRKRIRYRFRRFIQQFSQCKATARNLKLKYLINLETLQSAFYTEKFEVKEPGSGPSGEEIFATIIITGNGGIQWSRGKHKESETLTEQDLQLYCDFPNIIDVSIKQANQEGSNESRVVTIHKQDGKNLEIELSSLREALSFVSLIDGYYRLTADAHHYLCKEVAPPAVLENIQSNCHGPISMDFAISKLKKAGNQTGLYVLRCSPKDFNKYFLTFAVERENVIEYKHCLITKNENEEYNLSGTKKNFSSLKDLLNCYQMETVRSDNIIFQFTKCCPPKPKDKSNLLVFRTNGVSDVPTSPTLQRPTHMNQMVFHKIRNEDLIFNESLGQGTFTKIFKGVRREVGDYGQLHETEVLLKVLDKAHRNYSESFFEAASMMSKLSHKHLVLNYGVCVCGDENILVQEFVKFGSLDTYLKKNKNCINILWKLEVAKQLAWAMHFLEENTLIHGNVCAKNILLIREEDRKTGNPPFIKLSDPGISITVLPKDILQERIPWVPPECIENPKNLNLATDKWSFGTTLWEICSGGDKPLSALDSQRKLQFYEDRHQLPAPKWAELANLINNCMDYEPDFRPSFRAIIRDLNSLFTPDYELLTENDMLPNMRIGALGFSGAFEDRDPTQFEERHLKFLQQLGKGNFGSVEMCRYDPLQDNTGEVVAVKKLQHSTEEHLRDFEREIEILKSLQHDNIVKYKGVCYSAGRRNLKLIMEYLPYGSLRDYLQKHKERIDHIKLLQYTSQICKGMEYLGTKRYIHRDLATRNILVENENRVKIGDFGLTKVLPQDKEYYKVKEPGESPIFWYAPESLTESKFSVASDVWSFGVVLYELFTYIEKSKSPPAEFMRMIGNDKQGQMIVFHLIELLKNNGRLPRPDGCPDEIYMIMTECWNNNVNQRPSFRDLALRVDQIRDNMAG

Sequence | phosphorylation enrichment
QVQQIYSDSDL [MIB1_Y376_R371Q] | 1.05
FGSRLYKFAFK [FANCD2_Y458_L456R_YF] | 0.582
SLAARYFNWVS [FLT4_Y1230_YF] | 0.935
VAVVQYSGMGQ [COL6A1_Y878_T881M] | 0.612
LIDTVYSSSSA [OR4C12_Y71] | 1.19
VHFLVYHHHHH [CACNA1H_Y519_H516Y_YF] | 1.11
DVLVEYQGEGR [GNS_Y416] | 0.934
MTEEQYIKMNR [ARFGEF2_Y797_K794E] | 1.02
TSESSYFKSLN [NGEF_Y288_A286S_YF] | 0.67
GGQSVYHVHLH [HINT1_Y109] | 0.629
KALSLYTKLMN [STAM_Y371_E366K] | 1.14
GLPINYTTRRI [LAMA2_Y2894] | 0.468
KMTGRYEMFAR [UPB1_Y362_YF] | 0.586
NFNPNYCFAGK [ALK_Y1096_D1091N_YF] | 0.744
TIQSMYGCDVG [HLA-B_Y123_L119I] | 0.794
DLDLTYIFPNI [PTEN_Y27_YF] | 2.57
LSPNMYNSKLW [TARSL2_Y457] | 0.561

Sequence | phosphorylation enrichment
HNELYYEEAEH [VANGL1_Y345] | 1.32
PEADKYRLTYA [FGG_Y300] | 1.13
LLTALYFISRG [KCNH2_Y780] | 1.25
KQELVYPNKKL [OPTN_Y356_T357P] | 0.443
QCTSAHPLQPE [NANS_Y188_Y188H] | 1.28
CPYNLYAEQLS [HGD_Y40] | 1.39
RHYVYYYSYLL [PTEN_Y177_R173H] | 3.46
LARDMYDKEYY [MET_Y1230] | 1.41
HLQQSYLPRGT [TEX45_Y396] | 1.38
EPAVLYNLKDR [MYH7_Y103] | 0.585
VTNHIYTWVDP [DFNB31_Y234] | 0.87
CTTIHNNFMCN [TP53_Y234_Y234N_YF] | 0.95
VGTKRYMAPKV [ACVRL1_Y375_E379K] | 0.482
PGLKGYPGLSG [COL4A2_Y306_R304K] | 0.422
KGEDFYYVTCH [FHL1_Y149_C150Y] | 1.43
NVSILYTASQA [CTNNA1_Y222_P219S] | 0.95

What follows are sequences tested on c-Abl (mouse) in the same assay as above.

Sequence | phosphorylation enrichment
QVQQIYSDSDL [MIB1_Y376_R371Q] | 1.09
FGSRLYKFAFK [FANCD2_Y458_L456R_YF] | 0.456
SLAARYFNWVS [FLT4_Y1230_YF] | 0.822
VAVVQYSGMGQ [COL6A1_Y878_T881M] | 0.62
LIDTVYSSSSA [OR4C12_Y71] | 1.03
VHFLVYHHHHH [CACNA1H_Y519_H516Y_YF] | 0.863
DVLVEYQGEGR [GNS_Y416] | 0.709
MTEEQYIKMNR [ARFGEF2_Y797_K794E] | 0.612
TSESSYFKSLN [NGEF_Y288_A286S_YF] | 0.636
GGQSVYHVHLH [HINT1_Y109] | 0.581
KALSLYTKLMN [STAM_Y371_E366K] | 0.605
GLPINYTTRRI [LAMA2_Y2894] | 0.404
KMTGRYEMFAR [UPB1_Y362_YF] | 0.571
NFNPNYCFAGK [ALK_Y1096_D1091N_YF] | 0.617
TIQSMYGCDVG [HLA-B_Y123_L119I] | 0.68
DLDLTYIFPNI [PTEN_Y27_YF] | 1.17
LSPNMYNSKLW [TARSL2_Y457] | 0.726

Sequence | phosphorylation enrichment
HNELYYEEAEH [VANGL1_Y345] | 0.936
PEADKYRLTYA [FGG_Y300] | 0.825
LLTALYFISRG [KCNH2_Y780] | 1.05
KQELVYPNKKL [OPTN_Y356_T357P] | 0.561
QCTSAHPLQPE [NANS_Y188_Y188H] | 1.09
CPYNLYAEQLS [HGD_Y40] | 0.936
RHYVYYYSYLL [PTEN_Y177_R173H] | 1.35
LARDMYDKEYY [MET_Y1230] | 0.652
HLQQSYLPRGT [TEX45_Y396] | 1.59
EPAVLYNLKDR [MYH7_Y103] | 0.571
VTNHIYTWVDP [DFNB31_Y234] | 0.711
CTTIHNNFMCN [TP53_Y234_Y234N_YF] | 0.593
VGTKRYMAPKV [ACVRL1_Y375_E379K] | 0.625
PGLKGYPGLSG [COL4A2_Y306_R304K] | 0.639
KGEDFYYVTCH [FHL1_Y149_C150Y] | 1.11
NVSILYTASQA [CTNNA1_Y222_P219S] | 0.787

Each sequence was assayed against FGFR3 (UniProt P22607) in the same assay as above.
FGFR3, sequence (P22607 whole entry, looked up): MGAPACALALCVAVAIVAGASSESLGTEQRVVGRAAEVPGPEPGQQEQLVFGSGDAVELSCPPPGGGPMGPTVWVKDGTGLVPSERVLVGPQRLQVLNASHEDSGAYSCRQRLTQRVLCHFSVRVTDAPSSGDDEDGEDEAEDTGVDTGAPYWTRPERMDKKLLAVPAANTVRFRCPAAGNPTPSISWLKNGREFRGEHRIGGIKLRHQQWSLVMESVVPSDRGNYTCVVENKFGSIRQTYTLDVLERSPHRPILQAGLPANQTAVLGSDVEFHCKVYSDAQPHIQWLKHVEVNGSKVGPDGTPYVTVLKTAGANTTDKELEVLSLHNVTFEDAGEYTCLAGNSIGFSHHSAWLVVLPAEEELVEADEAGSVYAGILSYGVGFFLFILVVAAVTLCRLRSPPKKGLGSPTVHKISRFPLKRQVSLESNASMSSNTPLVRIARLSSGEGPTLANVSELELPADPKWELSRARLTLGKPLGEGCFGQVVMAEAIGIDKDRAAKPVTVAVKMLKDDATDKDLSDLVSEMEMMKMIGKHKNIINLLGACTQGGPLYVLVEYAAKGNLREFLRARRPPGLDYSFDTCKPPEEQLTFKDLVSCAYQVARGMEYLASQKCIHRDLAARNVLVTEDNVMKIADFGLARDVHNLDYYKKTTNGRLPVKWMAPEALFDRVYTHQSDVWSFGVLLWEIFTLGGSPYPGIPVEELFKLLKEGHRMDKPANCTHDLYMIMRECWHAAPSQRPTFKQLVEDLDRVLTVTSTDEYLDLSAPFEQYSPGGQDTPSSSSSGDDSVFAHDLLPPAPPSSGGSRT

Sequence | phosphorylation enrichment
QVQQIYSDSDL [MIB1_Y376_R371Q] | 0.932
FGSRLYKFAFK [FANCD2_Y458_L456R_YF] | 0.484
SLAARYFNWVS [FLT4_Y1230_YF] | 0.718
VAVVQYSGMGQ [COL6A1_Y878_T881M] | 0.506
LIDTVYSSSSA [OR4C12_Y71] | 1.32
VHFLVYHHHHH [CACNA1H_Y519_H516Y_YF] | 0.834
DVLVEYQGEGR [GNS_Y416] | 0.599
MTEEQYIKMNR [ARFGEF2_Y797_K794E] | 0.638
TSESSYFKSLN [NGEF_Y288_A286S_YF] | 0.705
GGQSVYHVHLH [HINT1_Y109] | 0.532
KALSLYTKLMN [STAM_Y371_E366K] | 0.872
GLPINYTTRRI [LAMA2_Y2894] | 0.415
KMTGRYEMFAR [UPB1_Y362_YF] | 0.53
NFNPNYCFAGK [ALK_Y1096_D1091N_YF] | 0.666
TIQSMYGCDVG [HLA-B_Y123_L119I] | 0.602
DLDLTYIFPNI [PTEN_Y27_YF] | 2.77
LSPNMYNSKLW [TARSL2_Y457] | 1.13

Sequence | phosphorylation enrichment
HNELYYEEAEH [VANGL1_Y345] | 2.08
PEADKYRLTYA [FGG_Y300] | 1.14
LLTALYFISRG [KCNH2_Y780] | 0.71
KQELVYPNKKL [OPTN_Y356_T357P] | 0.417
QCTSAHPLQPE [NANS_Y188_Y188H] | 0.961
CPYNLYAEQLS [HGD_Y40] | 0.988
RHYVYYYSYLL [PTEN_Y177_R173H] | 6.42
LARDMYDKEYY [MET_Y1230] | 0.973
HLQQSYLPRGT [TEX45_Y396] | 0.927
EPAVLYNLKDR [MYH7_Y103] | 0.539
VTNHIYTWVDP [DFNB31_Y234] | 3.33
CTTIHNNFMCN [TP53_Y234_Y234N_YF] | 0.623
VGTKRYMAPKV [ACVRL1_Y375_E379K] | 0.372
PGLKGYPGLSG [COL4A2_Y306_R304K] | 0.318
KGEDFYYVTCH [FHL1_Y149_C150Y] | 1.69
NVSILYTASQA [CTNNA1_Y222_P219S] | 0.725
